Measured values as given in the RNAGym collection of RNA variant scans (doi:10.1093/molbev/msab373).

B1: Azoarcus group I ribozyme (parent)
chain: GUGCCUUGCGCCGGGAAACCACGCAAGGGAUGGUGUCAAAUUCGGCGAAACCUAAGCGCCCGCCCGGGCGUAUGGCAACGCCGAGCCAAGCUUCGGCGCCUGCGCCGAUGAAGGUGUAGAGACUAGACGGCACCCACCUAAGGCAAACGCUAUGGUGAAGGCAUAGUCCAGGGAGUGGCGAAAGUCACACAAACCGG

Variants of: B1
Assay: reverse-splicing fitness (ratio to wild type); higher = more active; in vitro selection; Mg2+ level not given
Summary of the method: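 An in vitro group I ribozyme library with randomized positions was T7-transcribed and gel-purified. In triplicate, 10 pmol RNA in EPPS pH 7.5 was reacted with 50 pmoles of a 30-nt RNA substrate for 1 h at 37 °C across several added MgCl2 levels (1–48 mM), then stopped with EDTA. Products were reverse transcribed from a substrate-complementary primer, PCR-amplified and sequenced (HiSeq 4000). Fitness is a variant's read proportion after selection over that before, normalised to wild type.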

Row | Variant | reverse-splicing fitness
1 | C82G A111U A120C A145G C169G U176G | 0.00543
2 | C82G A111U A120C A145G C169U | 0.0141
3 | C82G A111U A120C A145G C169U U176A | 0.0138
4 | C82G A111U A120C A145G C169U U176C | 0.0156
5 | C82G A111U A120C A145G C169U U176G | 0.00528
6 | C82G A111U A120C A145G U176A | 0.0173
7 | C82G A111U A120C A145G U176C | 0.0311
8 | C82G A111U A120C A145G U176G | 0.00743
9 | C82G A111U A120C A145U | 0.0517
10 | C82G A111U A120C A145U C150A | 0.0104
11 | C82G A111U A120C A145U C150A C169A | 0.0103
12 | C82G A111U A120C A145U C150A C169A U176A | 0.0187
13 | C82G A111U A120C A145U C150A C169A U176C | 0.0144
14 | C82G A111U A120C A145U C150A C169A U176G | 0.00709
15 | C82G A111U A120C A145U C150A C169G | 0.00901
16 | C82G A111U A120C A145U C150A C169G U176A | 0.0207
17 | C82G A111U A120C A145U C150A C169G U176C | 0.0247
18 | C82G A111U A120C A145U C150A C169G U176G | 0.00638
19 | C82G A111U A120C A145U C150A C169U | 0.00991
20 | C82G A111U A120C A145U C150A C169U U176A | 0.0146
21 | C82G A111U A120C A145U C150A C169U U176C | 0.0141

Row | Variant | reverse-splicing fitness
22 | C82G A111U A120C A145U C150A C169U U176G | 0.00715
23 | C82G A111U A120C A145U C150A U176A | 0.0101
24 | C82G A111U A120C A145U C150A U176C | 0.018
25 | C82G A111U A120C A145U C150A U176G | 0.00705
26 | C82G A111U A120C A145U C150G | 0.0103
27 | C82G A111U A120C A145U C150G C169A | 0.00911
28 | C82G A111U A120C A145U C150G C169A U176A | 0.0121
29 | C82G A111U A120C A145U C150G C169A U176C | 0.0107
30 | C82G A111U A120C A145U C150G C169A U176G | 0.00704
31 | C82G A111U A120C A145U C150G C169G | 0.00772
32 | C82G A111U A120C A145U C150G C169G U176A | 0.00838
33 | C82G A111U A120C A145U C150G C169G U176C | 0.007
34 | C82G A111U A120C A145U C150G C169G U176G | 0.00592
35 | C82G A111U A120C A145U C150G C169U | 0.00954
36 | C82G A111U A120C A145U C150G C169U U176A | 0.0083
37 | C82G A111U A120C A145U C150G C169U U176C | 0.0123
38 | C82G A111U A120C A145U C150G C169U U176G | 0.00561
39 | C82G A111U A120C A145U C150G U176A | 0.0058
40 | C82G A111U A120C A145U C150G U176C | 0.00903
41 | C82G A111U A120C A145U C150G U176G | 0.00406
42 | C82G A111U A120C A145U C150U | 0.0337

Row | Variant | reverse-splicing fitness
43 | C82G A111U A120C A145U C150U C169A | 0.0102
44 | C82G A111U A120C A145U C150U C169A U176A | 0.0178
45 | C82G A111U A120C A145U C150U C169A U176C | 0.0135
46 | C82G A111U A120C A145U C150U C169A U176G | 0.00636
47 | C82G A111U A120C A145U C150U C169G | 0.00939
48 | C82G A111U A120C A145U C150U C169G U176A | 0.016
49 | C82G A111U A120C A145U C150U C169G U176C | 0.0194
50 | C82G A111U A120C A145U C150U C169G U176G | 0.00568
51 | C82G A111U A120C A145U C150U C169U | 0.0129
52 | C82G A111U A120C A145U C150U C169U U176A | 0.0134
53 | C82G A111U A120C A145U C150U C169U U176C | 0.0137
54 | C82G A111U A120C A145U C150U C169U U176G | 0.00575
55 | C82G A111U A120C A145U C150U U176A | 0.015
56 | C82G A111U A120C A145U C150U U176C | 0.0247
57 | C82G A111U A120C A145U C150U U176G | 0.00687
58 | C82G A111U A120C A145U C169A | 0.00897
59 | C82G A111U A120C A145U C169A U176A | 0.015
60 | C82G A111U A120C A145U C169A U176C | 0.0142
61 | C82G A111U A120C A145U C169A U176G | 0.00591
62 | C82G A111U A120C A145U C169G | 0.00981
63 | C82G A111U A120C A145U C169G U176A | 0.0154

Row | Variant | reverse-splicing fitness
64 | C82G A111U A120C A145U C169G U176C | 0.0213
65 | C82G A111U A120C A145U C169G U176G | 0.00535
66 | C82G A111U A120C A145U C169U | 0.0143
67 | C82G A111U A120C A145U C169U U176A | 0.0149
68 | C82G A111U A120C A145U C169U U176C | 0.0158
69 | C82G A111U A120C A145U C169U U176G | 0.00499
70 | C82G A111U A120C A145U U176A | 0.0204
71 | C82G A111U A120C A145U U176C | 0.0279
72 | C82G A111U A120C A145U U176G | 0.00709
73 | C82G A111U A120C C150A | 0.0117
74 | C82G A111U A120C C150A C169A | 0.0127
75 | C82G A111U A120C C150A C169A U176A | 0.0237
76 | C82G A111U A120C C150A C169A U176C | 0.0217
77 | C82G A111U A120C C150A C169A U176G | 0.00867
78 | C82G A111U A120C C150A C169G | 0.00894
79 | C82G A111U A120C C150A C169G U176A | 0.0181
80 | C82G A111U A120C C150A C169G U176C | 0.0267
81 | C82G A111U A120C C150A C169G U176G | 0.00701
82 | C82G A111U A120C C150A C169U | 0.0114
83 | C82G A111U A120C C150A C169U U176A | 0.018
